Laboratory results published in US20250289893A1 (OXFORD UNIVERSITY INNOVATION, published 2025).

Key:
[1] = target: T1, Cynomolgus monkey CD1a expressed on HEK-293 cells (Cynomolgus monkey, UniProt A0A2K5VQ68 17-326); test: flow cytometry, HEK-293 cells, 1 µg/ml antibody
Experimental: (§1) Binding to proteins expressed on HEK, C1R and MOLT4 cell lines was assessed. […] The C1R-CD1a, C1R-empty vector and MOLT4 cell lines were washed in 1×PBS on the day required. All cell lines were counted and resuspended in 1×PBS and then stained for 30 minutes at 37° C. using the DiI or DiO cellular stains (Invitrogen). Cells were washed with flow cytometry buffer (1% bovine serum albumin, 2 mM EDTA and 0.1% sodium azide in PBS) before mixing 2 DiI-stained and DiO-stained populations together. The cells (20 μl/well) were then added to dilutions of antibody sample (B cell culture supernatant, TAP supernatant, clone supernatant, purified antibody solution) (20 μl/well) and incubated for 1 hour at 4° C. in a flow cytometry assay plate, before being washed with flow cytometry buffer. 10 μl/well of Alexafluor647-conjugated goat anti-species IgG Fc-specific F(ab′)2 fragment (Jackson ImmunoResearch), diluted 1:2500 in flow cytometry buffer, was added and incubated at 4° C. for 30 minutes, followed by washing with wash buffer. The fluorescence intensity was then measured on an iQue screener PLUS.
(§2) Binding was quantified as fold change in fluorescence intensity geomean over background assessed by flow cytometry.

[2] = target: T2, human CD1a protein (pool B) (human, UniProt P06126 18-295, limits assumed); test: SPR (Biacore T200), antibody captured, human CD1a titrated, heterogeneous ligand model (kd 2)
T2 construct: Recombinant protein of the ELISA (coated) and the Biacore T200 titration; whole entry named; also called human CD1a pool B; full length CD1a
Experimental: (§3) The affinity of the purified antibodies to human CD1a was assessed using a Biacore T200 instrument (GE Healthcare) by capturing the antibody to an immobilized anti-species IgG F(ab′)2 followed by titration of human CD1a. Affinipure Goat anti-species IgG-F(ab′)2 fragment specific (Jackson ImmunoResearch) was immobilized on a CM5 Sensor Chip (GE Healthcare) via amine coupling chemistry to a capture level of ˜5000 response units (RUs). HBS-EP+ buffer (10 mM HEPES pH 7.4, 0.15 M NaCl, 3 mM EDTA, 0.05% Surfactant P20, GE Healthcare) was used as the running buffer with a flow rate of 10 μL/min. A 10 μL injection of test antibody at 0.5 μg/mL was used for capture by the immobilized Goat Anti-species Fab.
(§4) The surface was regenerated between cycles by injection of 2×10 μL of 40 mM HCl, interspersed by a 10 μL injection of 5 mM NaOH at flowrate of 10 μL/min. Background subtraction binding curves were analyzed using the Biacore T200 evaluation software following standard procedures. Kinetic parameters were determined from the fitting algorithm. This assay was performed at the clone supernatant and purified antibody stage.
(§5) Affinity was required to be <100 nM to be considered for progression.

[3] = target: T3, human CD1a expressed on cells (human, UniProt P06126 17-327; P61769 21-119); test: flow cytometry, C1R cells, 10 µg/ml antibody
T3 construct: also called HEK - CD1a; C1R - CD1a
Experimental: as §1, §2

[4] = target: T4, Cynomolgus monkey CD1a protein (Cynomolgus monkey); test: ELISA, 1 µg/ml antibody
T4 chain: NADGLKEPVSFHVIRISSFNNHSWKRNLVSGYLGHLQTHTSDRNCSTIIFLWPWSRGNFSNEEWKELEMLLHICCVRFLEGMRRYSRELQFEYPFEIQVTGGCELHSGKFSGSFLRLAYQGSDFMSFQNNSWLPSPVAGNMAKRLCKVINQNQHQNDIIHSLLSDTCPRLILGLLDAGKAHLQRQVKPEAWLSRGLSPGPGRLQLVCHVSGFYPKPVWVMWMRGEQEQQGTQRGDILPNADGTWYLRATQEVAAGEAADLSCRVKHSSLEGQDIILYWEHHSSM

[5] = target: Chinese variant CD1a protein (human) (UniProt P06126); test: ELISA, 1 µg/ml antibody
[6] = target: T4, Cynomolgus monkey CD1a protein; test: ELISA, 10 µg/ml antibody
[7] = target: Chinese variant CD1a protein (human) (UniProt P06126); test: ELISA, 10 µg/ml antibody
[8] = target: T3, human CD1a expressed on cells; test: flow cytometry, HEK-293 cells, 0.1 µg/ml antibody
Experimental: as §1
(§6) HEK-293 cells were transiently transfected with human CD1a, CD1b, CD1c or CD1d and co-transfected with human β2M.

[9] = target: T2, human CD1a protein (pool B); test: SPR (Biacore T200), antibody captured, human CD1a titrated, heterogeneous ligand model (kd)
Experimental: as §3, §4, §5

[10] = target: chimeric CD1a pool B protein [human CD1a lipid binding domain, mouse CD1d Ig domain] (human; mouse, UniProt P06126 18-201; P11609 205-297, limits assumed); test: ELISA, 0.1 µg/ml antibody
Experimental: (§7) CD1a-specific antibodies were identified by ELISA. […] 20 μl/well of peroxidase-conjugated goat anti-species IgG Fc-specific F(ab′)2 fragment (Jackson ImmunoResearch), diluted 1:5000 in block buffer was added and incubated at room temperature for 1 hour, followed by washing with wash buffer.
The antibodies were titrated through a dilution series and compared to a control rabbit IgG antibody. […] Data shown for purified antibodies.

[11] = target: T2, human CD1a protein (pool B); test: SPR (Biacore T200), antibody captured, human CD1a titrated, heterogeneous ligand model (ka)
Experimental: as §3, §5

[12] = target: Chinese variant CD1a protein (human) (UniProt P06126); test: ELISA, 0.1 µg/ml antibody
[13] = target: T3, human CD1a expressed on cells; test: flow cytometry, HEK-293 cells, 10 µg/ml antibody
Experimental: as §1, §6

[14] = target: T4, Cynomolgus monkey CD1a protein; test: ELISA, 0.1 µg/ml antibody
[15] = target: T5, human CD1d expressed on HEK-293 cells (human, UniProt P15813 20-335; P61769 21-119); test: flow cytometry, HEK-293 cells
T5 construct: also called HEK - CD1d
Experimental: (§8) CD1a-specific antibodies were identified by flow cytometry. Binding to proteins expressed on HEK, C1R and MOLT4 cell lines was assessed. […] The C1R-CD1a, C1R-empty vector and MOLT4 cell lines were washed in 1×PBS on the day required. All cell lines were counted and resuspended in 1×PBS and then stained for 30 minutes at 37° C. using the DiI or DiO cellular stains (Invitrogen). Cells were washed with flow cytometry buffer (1% bovine serum albumin, 2 mM EDTA and 0.1% sodium azide in PBS) before mixing 2 DiI-stained and DiO-stained populations together. The cells (20 μl/well) were then added to dilutions of antibody sample (B cell culture supernatant, TAP supernatant, clone supernatant, purified antibody solution) (20 μl/well) and incubated for 1 hour at 4° C. in a flow cytometry assay plate, before being washed with flow cytometry buffer. 10 μl/well of Alexafluor647-conjugated goat anti-species IgG Fc-specific F(ab′)2 fragment (Jackson ImmunoResearch), diluted 1:2500 in flow cytometry buffer, was added and incubated at 4° C. for 30 minutes, followed by washing with wash buffer. The fluorescence intensity was then measured on an iQue screener PLUS.

[16] = target: T6, human CD1b expressed on HEK-293 cells (human, UniProt P29016 18-333; P61769 21-119); test: flow cytometry, HEK-293 cells
T6 construct: also called HEK - CD1b
Experimental: as §8

[17] = target: T7, human CD1c expressed on HEK-293 cells (human, UniProt P29017 18-333; P61769 21-119); test: flow cytometry, HEK-293 cells
T7 construct: also called HEK - CD1c
Experimental: as §8

[18] = target: T3, human CD1a expressed on cells; test: flow cytometry, HEK-293 cells, 1 µg/ml antibody
Experimental: as §1, §6

[19] = target: T3, human CD1a expressed on cells; test: flow cytometry, C1R cells, 1 µg/ml antibody
Experimental: as §1, §2

[20] = target: T1, Cynomolgus monkey CD1a expressed on …; test: flow cytometry, HEK-293 cells, 0.01 µg/ml antibody
Experimental: as §1, §2

[21] = target: T4, Cynomolgus monkey CD1a protein; test: ELISA, 0.01 µg/ml antibody
[22] = target: T3, human CD1a expressed on cells; test: flow cytometry, MOLT4 cells, 0.1 µg/ml antibody
Experimental: as §8, §2

[23] = target: T1, Cynomolgus monkey CD1a expressed on …; test: flow cytometry, HEK-293 cells, 10 µg/ml antibody
Experimental: as §1, §2

[24] = target: T2, human CD1a protein (pool B); test: SPR (Biacore T200), antibody captured, human CD1a titrated, heterogeneous ligand model (KD)
Experimental: as §3, §5

[25] = target: T1, Cynomolgus monkey CD1a expressed on …; test: flow cytometry, HEK-293 cells, 0.1 µg/ml antibody
Experimental: as §1, §2

[26] = target: T2, human CD1a protein (pool B); test: ELISA, 0.1 µg/ml antibody
Experimental: as §7
The antibodies were titrated through a dilution series and compared to a control rabbit IgG antibody.

[27] = target: T3, human CD1a expressed on cells; test: flow cytometry, MOLT4 cells, 1 µg/ml antibody
Experimental: as §8, §2

[28] = target: T2, human CD1a protein (pool B); test: SPR (Biacore T200), antibody captured, human CD1a titrated, heterogeneous ligand model (ka 2)
Experimental: as §3, §4, §5

[29] = target: T3, human CD1a expressed on cells; test: flow cytometry, MOLT4 cells, 10 µg/ml antibody
Experimental: as §8, §2

[30] = target: T3, human CD1a expressed on cells; test: flow cytometry, C1R cells, 0.1 µg/ml antibody
Experimental: as §1, §2

[31] = target: Chinese variant CD1a protein (human) (UniProt P06126); test: ELISA, 0.01 µg/ml antibody
[32] = target: T2, human CD1a protein (pool B); test: SPR (Biacore T200), antibody captured, human CD1a titrated, heterogeneous ligand model (KD2)
Experimental: as §3, §4, §5

T2 sequence (P06126 18-295 limits assumed): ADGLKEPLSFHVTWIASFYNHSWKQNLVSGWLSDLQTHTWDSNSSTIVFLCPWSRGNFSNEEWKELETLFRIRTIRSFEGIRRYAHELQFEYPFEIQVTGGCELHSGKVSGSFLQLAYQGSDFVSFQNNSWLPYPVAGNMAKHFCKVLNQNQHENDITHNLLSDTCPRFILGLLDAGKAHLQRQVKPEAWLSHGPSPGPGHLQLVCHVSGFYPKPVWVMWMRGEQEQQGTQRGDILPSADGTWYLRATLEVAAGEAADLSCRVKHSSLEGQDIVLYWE
Chain of Chinese variant CD1a protein (human) (P06126 18-295, stated change not applied): as the sequence (P06126 18-295 limits assumed) above
T1 sequence (A0A2K5VQ68 entry or part of it): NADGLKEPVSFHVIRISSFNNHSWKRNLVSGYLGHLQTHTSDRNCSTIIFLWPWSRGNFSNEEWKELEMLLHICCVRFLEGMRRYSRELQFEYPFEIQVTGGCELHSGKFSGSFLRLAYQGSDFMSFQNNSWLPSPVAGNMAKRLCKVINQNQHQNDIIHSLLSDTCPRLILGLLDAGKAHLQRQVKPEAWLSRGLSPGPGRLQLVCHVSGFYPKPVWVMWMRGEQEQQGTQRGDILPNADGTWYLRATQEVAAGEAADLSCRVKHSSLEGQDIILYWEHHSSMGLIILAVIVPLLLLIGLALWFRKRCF
Chain of chimeric CD1a pool B protein [human CD1a lipid binding domain, mouse CD1d Ig domain] (P06126 other isoform, or with tags, fused parts or gaps mutant limits assumed): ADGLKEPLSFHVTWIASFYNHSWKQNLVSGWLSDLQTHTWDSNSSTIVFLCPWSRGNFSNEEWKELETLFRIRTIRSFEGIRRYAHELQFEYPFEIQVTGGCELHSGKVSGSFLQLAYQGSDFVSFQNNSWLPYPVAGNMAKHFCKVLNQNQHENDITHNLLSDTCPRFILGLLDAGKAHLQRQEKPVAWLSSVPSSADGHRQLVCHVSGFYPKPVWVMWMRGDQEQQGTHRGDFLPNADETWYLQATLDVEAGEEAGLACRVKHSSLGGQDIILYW

B1: 16 (VR11834) (antibody, V domains shown)
VH: EVQLVESGGGLVKPGGSLKLSCAASGFTFSNYAMSWVRQTPEKRLEWVAAINSNGGSAYYPDTVKDRFTISRDNAKNTLYLQMSSLRSEDTALYYCARRFYYDYGWFAYWGQGTLVTVSS
VL: DIVLTQSPASLSASVGETVTITCRASENIDSYLAWYQQKQGKSPQLLVYAATLLADGVPSRFSGSGSGTQYSLKINSLQSEDVARYYCQHYYSSPWTFGGGTKLEIK
notes: also called OX16; antibody 16
Q: B1 was tested. Which “Fluorescence Intensity Geomean (normalized to background)” value [1] did it give?
A: 7.6 fold over background

Q: And the koff [2]?
A: 0.00658 s⁻¹

Q: And the “Fluorescence Intensity Geomean (normalized to background)” value [3]?
A: 7 fold over background

Q: What about the “Optical Density (OD)” value [4] of the same binder?
A: 0.58 OD

Q: And the Optical Density (OD) [5]?
A: 1.35 OD

Q: And the “Optical Density (OD)” value [6]?
A: 0.49 OD

Q: What about the Optical Density (OD) [7] of the same binder?
A: 1.44 OD

Q: And the “Fluorescence Intensity Geomean (normalized to background)” value [8]?
A: 12.9 fold over background

Q: What about the koff [9] of the same binder?
A: 0.000729 s⁻¹

Q: And the “Optical Density (OD)” value [10]?
A: 0.7 OD

Q: What about the kon [11] of the same binder?
A: 1.86e+06 M⁻¹ s⁻¹

Q: What about the Optical Density (OD) [12] of the same binder?
A: 1.3 OD

Q: And the “Fluorescence Intensity Geomean (normalized to background)” value [13]?
A: 10.2 fold over background

Q: And the “Optical Density (OD)” value [14]?
A: 0.57 OD

Q: Does B1 bind [15]?
A: no binding

Q: Does B1 bind [16]?
A: no binding

Q: Does B1 bind [17]?
A: no binding

Q: What about the “Fluorescence Intensity Geomean (normalized to background)” value [18] of the same binder?
A: 19.6 fold over background

Q: What about the “Fluorescence Intensity Geomean (normalized to background)” value [19] of the same binder?
A: 10.1 fold over background

Q: What about the “Fluorescence Intensity Geomean (normalized to background)” value [20] of the same binder?
A: 6.9 fold over background

Q: What about the “Optical Density (OD)” value [21] of the same binder?
A: 0.46 OD

Q: What about the “Fluorescence Intensity Geomean (normalized to background)” value [22] of the same binder?
A: 14.4 fold over background

Q: What about the “Fluorescence Intensity Geomean (normalized to background)” value [23] of the same binder?
A: 8.8 fold over background

Q: And the Kd [24]?
A: 0.392 nM

Q: What about the “Fluorescence Intensity Geomean (normalized to background)” value [25] of the same binder?
A: 8.5 fold over background

Q: What about the “Optical Density (OD)” value [26] of the same binder?
A: 0.59 OD

Q: What about the “Fluorescence Intensity Geomean (normalized to background)” value [27] of the same binder?
A: 15 fold over background

Q: And the kon [28]?
A: 514000 M⁻¹ s⁻¹

Q: And the “Fluorescence Intensity Geomean (normalized to background)” value [29]?
A: 7.5 fold over background

Q: What about the “Fluorescence Intensity Geomean (normalized to background)” value [30] of the same binder?
A: 10.2 fold over background

Q: And the Optical Density (OD) [31]?
A: 1.01 OD

Q: And the Kd [32]?
A: 12.8 nM
